Laboratory results from patent publication US20160303217A1 (ENGINEERED ANTIGENS, published 2016).
Changes are numbered by the printed parent chain. Names may count otherwise.

Assays:
porcine transferrin [1] = target: T1, porcine transferrin (porcine, UniProt P09571 1-696); test: affinity capture from cell lysate on porcine Tf-Sepharose, SDS-PAGE
T1 construct: also called pTf; porcine Tf

porcine transferrin [2] = target: T1, porcine transferrin; test: isothermal calorimetry, surface plasmon resonance or biolayer interferometry
porcine transferrin [3] = target: T1, porcine transferrin; test: solid-phase (dot) binding assay with HRP-conjugated porcine transferrin; also capture on porcine Tf-Sepharose

T1 sequence (P09571 whole entry): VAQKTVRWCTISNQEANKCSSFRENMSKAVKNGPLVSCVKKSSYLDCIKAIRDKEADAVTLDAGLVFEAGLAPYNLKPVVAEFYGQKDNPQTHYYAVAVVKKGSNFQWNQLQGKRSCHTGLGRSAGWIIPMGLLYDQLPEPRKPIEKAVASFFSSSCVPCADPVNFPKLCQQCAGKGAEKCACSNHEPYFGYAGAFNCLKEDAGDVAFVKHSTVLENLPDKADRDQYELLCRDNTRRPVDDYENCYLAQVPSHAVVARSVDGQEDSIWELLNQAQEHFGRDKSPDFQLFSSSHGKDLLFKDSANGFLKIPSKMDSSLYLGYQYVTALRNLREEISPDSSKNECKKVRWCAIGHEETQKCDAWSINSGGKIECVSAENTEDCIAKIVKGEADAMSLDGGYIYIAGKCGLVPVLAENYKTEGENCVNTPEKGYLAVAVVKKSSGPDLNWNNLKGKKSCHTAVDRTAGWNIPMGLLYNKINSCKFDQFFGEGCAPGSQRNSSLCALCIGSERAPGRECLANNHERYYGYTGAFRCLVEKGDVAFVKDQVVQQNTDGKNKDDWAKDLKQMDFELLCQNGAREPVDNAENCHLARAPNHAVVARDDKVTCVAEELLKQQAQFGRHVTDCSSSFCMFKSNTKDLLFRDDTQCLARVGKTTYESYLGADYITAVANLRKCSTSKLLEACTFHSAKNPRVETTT

B1: engineered (loop-reduced) TbpB N-lobe from Actinobacillus pleuropneumoniae strain H49, fusion protein with N-terminal maltose binding protein and polyhistidine … (receptor)
chain: GSGVSKEEYKDVETAKKEKEQLGELGELMEPALGYVVKVPVSAGKKVDISDIEVITNGNLDDVPYKANSSKYNYPDIKTKDSSLQYVRSGYVISPDGGYVYYKGNSPAKELPVNQLLTYTGSWDFTSNANLNAARPAGAGKRVGLVSGDAKERKYTSQFEVDFATKKMTGKLSDKEKTIYTVNADIRGNRFTGAATASDKNDPILSADSQSLEGGFYGPKAEEMAGKFVANDKSLFAVFSAKHNGSNV
notes: also called engineered TbpB N-lobe H49; modified N-lobe; not shown: N-terminal polyhistidine region of the custom expression vector; TEV (tobacco etch virus) cleavage site
binding result (porcine transferrin [1]): no binding

B2: A. suis TbpB 27-577 (amino acid 27-577) derived from strain H57, purified recombinant truncated protein (receptor)
chain: SYQDEETKKKTKEELDKLMEPTLGVEAKIPRRNRALFDKEGNRKATPDTTDELSEAQIMAIWNENIDEIPHLKELNDKTTSGLIYHSHDGKQEDKKRNLQYVRSGYVFDESYSEIVKNKNGVPYIFKNGIDGYIYYLGTSPSKELPKGNKVTYKGTWDFTSDVKTSYELSGFSDAGNGKNVAATSISDNVNRDHKVGEKLGDNEVKGVAHSSEFAVDFDNKKLTGSLYRNGYINRNKAQEVTKRYSIEADITGNRFTGKAKAEKAGDPIFTDSNYLEGGFYGPKAEEMAGKFFTNNKSLFAVFAAKSENGETTTERIIDATKIDLTQFNAKELNNFGDASVLIIDGQKIDLAGVNFKNSKTVEINGKTMVAVACCSNLEYMKFGQLWQKEGKQQVKDNSLFLQGERTATDKMPAGGNYKYVGTWDALVSKGTNWIAEADNNRESGYRTEFDVNFSDKKVNGKLFDKGGVNPVFTVDATINGNGFIGSAKTSDSGFALDAGSSQHGNAVFSDIKVNGGFYGPTAGELGGQFHHKSDNGSVGAVFGA
notes: also called AsH57 TbpB; TbpB from Actinobacillus suis
Kd (porcine transferrin [2]): ~120 nM

B3: Y167A mutant of H. parasuis TbpB 27-577 derived from the Nagasaki strain Hp5 (receptor)
chain: CSGGKGSFDLEDVQPNKTTGVSKEEYKDVETDKKVKEQLGELMEPALGYVVKVPVSQSGVKRTEISNPEAITDEDLNKIPNYEIIKGVAYPNYGELVDKTAAETMKYVRSGYVIDVYHSGTRDKGYVFYKGITPSKELPQGPALTYQGEWDFTSDANLNNEEGRPTALNDDYYTTWIGKRAGLVSGDAKPSKHKYTSQFKVDFATKKMTGKLSDKEKTIYTVNADIRGNRFTGSATASDKDKGKGASYNFFSVDSQSLEGGFYGPKAEEMAGKFVADDKSLFAVFSAKHNASNVNTVRIIDASKIDLTNFSISELTNFGDASVLIIDGKKMELAGSEFTNKHTIDINGKKMVAVACCSNLEYMKFGQLWQQTEGEKQVKDNSLFLQGERTATDKMPKDGNYKYIGTWDAQVSKENNYWVATADDDRKAGYRTEFDVDFGSKNLSGKLFDKNGVNPVFTVNAKIDGNGFTGEAKTSDAGFVLDPGSLRHDNVKFSDVAVSGGFYGPTAAELGGQFRYQSDNGSVGVGAVFGAKQQVKK
notes: also called Y167A TbpB; Y167A mutant TbpB
fold increase in the affinity constant (Kd) against the native TbpB (porcine transferrin [2]): 100 fold

B4: W176A mutant of H. parasuis TbpB 27-577 derived from the Nagasaki strain Hp5 (receptor)
chain: B3 chain with Y93A, A167Y, W176A
notes: also called W176A mutation in the TbpB from H. parasuis strain HP5
fold increase in the affinity constant (Kd) against the native TbpB (porcine transferrin [2]): 100 fold

B5: native TbpB N-lobe from Actinobacillus pleuropneumoniae strain H49, fusion protein with N-terminal maltose binding protein and polyhistidine tag (receptor)
chain: CSGGKGSFDLEDVRPNKTTGVSKEEYKDVETAKKEKEQLGELMEPALGYVVKVPVSSFENKKVDISDIEVITNGNLDDVPYKANSSKYNYPDIKTKDSSLQYVRSGYVIDGEHSGSNEKGYVYYKGNSPAKELPVNQLLTYTGSWDFTSNANLNNEEGRPNYLNDDYYTKFIGKRVGLVSGDAKPAKHKYTSQFEVDFATKKMTGKLSDKEKTIYTVNADIRGNRFTGAATASDKNKGKGESYNFFSADSQSLEGGFYGPKAEEMAGKFVANDKSLFAVF
notes: also called Mbp-TbpB N-lobe; native h49 TbpB N-lobe; not shown: N-terminal polyhistidine region of the custom expression vector; TEV (tobacco etch virus) cleavage site
binding result (porcine transferrin [3]): binds

B6: Y174A mutant of A. pleuropneumoniae TbpB 26-528 derived from strain H87 (receptor)
chain: VNYTDEETQKRKKEELDKLMEPALGYVTKIPVNIPSVRKTEISEIDTVTDESLSLVPNEDKLRTIANENYGSVVTKSGSNTMNFVRSGYTIDVVHYGLRDKGYVYYKGVHPSKELPKGNIIVYQGEWDFTSNADLDAKRPNYNPEFNGAGAGQRVGVTSADAKERTYISKFNIDFSNKKLNGQLLTKTKENQEKLRYTVEANISGNRFRGKATATDKTDPILGKDSEHLEGGLYGPKSEELAGKFVAHDKSLFAVFSGKRGNDVLETVKIIDASKIDLTTFESSELNNFGNANVLIIDGQKIDLAGADFKNRKTVDINGKTMVAIACCSNLEYMKFGQLWQKEGEQTKDNSLFLQGERTATDKIPVGGNYKYVGTWDALVSKGTNWVAEADNNRESGYRSEFDVNFGDKKVSGKLFDKGGIVPVFMINADIKGNGFTGTANTTDTGFALDSGSSQHGNAVFSDIKVNGGFYGPTAGELGGQFHHKSDNGSVGAVFG
fold increase in the affinity constant (Kd) against the native TbpB (porcine transferrin [2]): 100 fold

B7: engineered (loop-reduced) TbpB N-lobe from Actinobacillus pleuropneumoniae strain H87, fusion protein with N-terminal maltose binding protein and polyhistidine … (receptor)
chain: GSKLMEPALGYVTKIPVGPGSEISEIDTVTDESVSGAPGVVNSGYTIDVVHYGLRDKGSVSYKGVHPSKELPKGNIIVYQGEWDFTSNAGAAGRVGVTSADAKERTYISKFNIDFSNKKLNGQLLTKTKENQEKLRYTVEANISGNRFRGKATATDKTDPILGKDSEHLEGGLYGPKSEELAGKFVAHDKSLFAVFSGKRGNDVL
notes: also called engineered TbpB N-lobe H87; not shown: N-terminal polyhistidine region of the custom expression vector; TEV (tobacco etch virus) cleavage site
binding result (porcine transferrin [1]): no binding

B8: F171A mutant of ApH49 TbpB 20-528 (receptor)
chain: GVSKEEYKDVETAKKEKEQLGELMEPALGYVVKVPVSSFENKKVDISDIEVITNGNLDDVPYKANSSKYNYPDIKTKDSSLQYVRSGYVIDGEHSGSNEKGYVYYKGNSPAKELPVNQLLTYTGSWDFTSNANLNNEEGRPNYLNDDYYTKAIGKRVGLVSGDAKPAKHKYTSQFEVDFATKKMTGKLSDKEKTIYTVNADIRGNRFTGAATASDKNKGKGESYNFFSADSQSLEGGFYGPKAEEMAGKFVANDKSLFAVFSAKHNGSNVDTVRIIDASKIDLTNFSISELNNFGDASVLIIDGKKIKLAGSGFTNKHTIEINGKTMVAVACCSNLEYMKFGQLWQQAEGGKPENNSLFLQGERTATDKMPKGGNYKYIGTWDAQVSKENNWVATADDDRKAGYRTEFDVDFGNKNLSGKLFDKNGVNPVFTVDAKIDGNGFTGKAKTSDAGFALDSGSSRYENVKFNDVAVSGGFYGPTAAELGGQFHHKSENGSVGAVFG
notes: also called F171A mutation in the TbpB from A. pleuropneumoniae strain H49
fold increase in the affinity constant (Kd) against the native TbpB (porcine transferrin [2]): 100 fold
